Target: Chaetomium thermophilum Pmt4 (protein O-mannosyltransferase 4), wild-type full-length (Chaetomium thermophilum)
Assay: native MS; ctPmt4 purified in DDM, exchanged into 200 mM ammonium acetate pH 8.0 with 2x CMC detergent; Q Exactive UHMR, negative polarity; monomer and dimer peaks seen

stoichiometry N: 2
Substance: Chaetomium thermophilum Pmt4 (protein O-mannosyltransferase 4), wild-type full-length (enzyme)
